The term Kd denotes a measure of binding affinity in units of concentration. A low value points to a tighter complex. By koff is commonly meant the first-order rate constant of dissociation. Lower therefore signals a long-lived complex. Broadly, the kon is the rate constant with which the complex forms.

This note sets out measurements from patent publication US20180237511A1 (Sanofi, published 2018).

The target in experiment [1] is T1, human beta-dystroglycan extracellular domain (soluble) (human, UniProt Q14118 654-749).
T1 construct: extracellular domain; The expression construct of soluble human beta-DG is not described (only the mouse one); also called hBeta-DG; hbeta-DG
T1 sequence (looked up): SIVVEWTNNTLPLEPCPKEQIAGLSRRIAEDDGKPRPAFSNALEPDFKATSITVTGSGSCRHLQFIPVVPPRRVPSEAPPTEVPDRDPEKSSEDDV
As to the kind of experiment: SPR, antibody on Protein G chip, beta-DG in flow, 1:1 model (table title says laminin-2; paragraph 445 says human beta-DG). Here is the method: (§1) Data was evaluated with a 1:1 binding model using the BIAevaluation software.
(§2) SPR was used as described above to analyze the kinetics of triAb binding to laminin-2 (Table N) or beta-DG (Table O).

Experiment [2] has as its target T2, murine beta-dystroglycan extracellular domain (mbeta-DG ECD), HPC4 tagged (mouse, UniProt Q62165 652-746).
T2 construct: range 652-746; Made in E. coli as MBP fusion; MBP cleaved off with TEV protease; also called mbeta-DG-HPC4; murine beta-DG; not shown: C-terminal HPC4 tag
T2 sequence (looked up): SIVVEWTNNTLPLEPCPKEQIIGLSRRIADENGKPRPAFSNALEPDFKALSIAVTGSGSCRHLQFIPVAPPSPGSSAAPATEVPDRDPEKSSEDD
Description: SPR (Biacore) kinetics; mAb immobilized, mBeta-DG in flow. Background: In SPR one partner is held on a chip, and binding of the other changes the refractive index at the surface.

Experiment [3] addresses T1, human beta-dystroglycan extracellular …. As to the kind of experiment: SPR (Biacore) kinetics; mAb immobilized, hBeta-DG in flow.
Experiment [4] addresses T3, human laminin G-like 5 domain of laminin-2 (hLG-5) (human, UniProt P24043 2936-3122, soluble biotinylated protein (Avi tag)).
T3 construct: The construct used for the crystal structure with C21 Fab is not described; the same entry is used; also called human LG-5; human LG5; not shown: N-terminal Avi and HPC4 tags
T3 sequence: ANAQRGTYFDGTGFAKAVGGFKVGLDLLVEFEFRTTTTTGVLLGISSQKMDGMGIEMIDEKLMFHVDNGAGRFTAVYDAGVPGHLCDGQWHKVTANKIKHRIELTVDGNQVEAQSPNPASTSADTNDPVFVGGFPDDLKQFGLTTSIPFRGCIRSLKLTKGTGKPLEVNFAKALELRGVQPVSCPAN
As to the kind of experiment: SPR (Biacore) kinetics; mAb immobilized, hLG-5 in flow.

Experiment [5] deals with T1, human beta-dystroglycan extracellular …. As to the kind of experiment: sequential SPR (Biacore T100): antibody captured on a Protein G chip, 200 nM human LG4/5 for 60 s, then 200 nM human beta-DG for 60 s. Here is the method:
For sequential dual binding of antigens to trivalent antibodies, a Series S Sensor Protein G chip (GE Healthcare, 29179315) was used with a T100 Biacore. This chip was used to immobilize trivalent or parental antibody to the surface (60 seconds with 5 ug/mL of antibody). After capture, 200 nM of LG4/5 was flowed over the chip for 60 seconds followed by 200 nM of beta-DG for 60 seconds. Binding to the trivalent antibody was observed by the change of mass detected on the chip in relative units (RU).
Additionally, surface plasmon resonance was performed to show sequential binding of the human laminin-2 and beta-DG antigens (FIG. 1C).

Experiment [6] deals with T4, human laminin G-like 4 and 5 domains of laminin-2 (hLG-4/5), soluble (human, UniProt P24043 2729-3122, biotinylated in the ELISA of Example 6).
T4 construct: range 2729-3122; also called human LG-4/5; hLG4/LG5; not shown: Avi tag and HPC4 tag left after TEV cleavage of the N-terminal mIgG2a fusion partner
T4 sequence (looked up): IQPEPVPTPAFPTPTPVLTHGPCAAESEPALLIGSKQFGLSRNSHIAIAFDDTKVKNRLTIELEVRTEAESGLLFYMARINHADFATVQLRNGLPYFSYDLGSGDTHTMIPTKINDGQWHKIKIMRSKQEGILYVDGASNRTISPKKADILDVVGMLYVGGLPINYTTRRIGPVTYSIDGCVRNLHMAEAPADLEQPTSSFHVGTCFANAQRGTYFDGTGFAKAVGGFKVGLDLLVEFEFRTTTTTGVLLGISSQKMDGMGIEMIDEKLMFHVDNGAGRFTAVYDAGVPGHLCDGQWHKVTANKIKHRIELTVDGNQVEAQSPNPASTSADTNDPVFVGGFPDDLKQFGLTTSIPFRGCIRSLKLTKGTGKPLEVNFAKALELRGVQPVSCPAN
As to the kind of experiment: SPR, antibody on Protein G chip, LG4/5 in flow, 1:1 model (table title says beta-DG; paragraph 445 says human laminin-2). Here is the method: as §1, §2

B1: humanized anti-beta-DG antibody AS30SS_Hu6 (antibody, V domains shown)
VH: QVQLVQSGAEVVKPGSSVKVSCEASGFTFTDSVITWVRQRPGQGLEWIGEIYPGSGNFYYNEKFQGRVTITADKSTSTAYMELSSLRSEDTAVYFCAMRRSSWGQGTLVTVSS
VL: DVVMTQTPLSLSVTPGQPASISCKSSQTIVHSNSKTYLEWYLQKPGQSPQLLIYKVSSRFSGVPDRFSGSGSGTDFTLKISRVEAEDVGVYYCFQGSHVPLTFGQGTKLEIK
notes: also called AS30_Hu6; AS30 Hu6
In the case of B1, in experiment [1], the equilibrium dissociation constant (Kd) turned out to be 0.796 nM, the koff is 0.00202 s⁻¹ and the kon was determined as 2.54e+06 M⁻¹ s⁻¹.

B2: triAb 3429 (bispecific antibody)
light 1: EIVLTQSPDFLSVTPGEKVTLTCRASQSISNYLHWYQQKSDQSPKLLIKYASQSISGVPSRFSGSGSGTDFTLTISSVEAEDFATYFCQQSKSWPRTFGGGTKLEIKDKTHTEIVLTQSPDFLSVTPKEKVTLTCRASQSIGNNLHWYQQKSDQSPKLLIKYASQSISGIPSRFSGSGSGTDFTLTINSVEAEDAATYFCQQSKSWPRTFGGGTKLEIKDKTHTRTVAAPSVFIFPPSDEQLKSGTASVVCLLNNFYPREAKVQWKVDNALQSGNSQESVTEQDSKDSTYSLSSTLTLSKADYEKHKVYACEVTHQGLSSPVTKSFNRGEC
heavy 1: EVQLVESGGGLVKPGGSLRLSCAASGFTFSSYTMSWVRQAPGKGLEWVASISSSGSNTYYPDSVKGRFTISRDNAKNNLYLQMNSLRAEDTALYYCARFDYGSSLDSWGQGTLLTVSSDKTHTEVQLVESGGGLVQPGGSLRLSCAASGFTFSSYTMSWVRQAPGKGLEWVATISSSGDNTYYPDSVKGRFTISRDNSKNTLYLQMSSLRAEDTALYYCARFDYGSSLDSWGQGTTLTVSSDKTHTASTKGPSVFPLAPSSKSTSGGTAALGCLVKDYFPEPVTVSWNSGALTSGVHTFPAVLQSSGLYSLSSVVTVPSSSLGTQTYICNVNHKPSNTKVDKKVEPKSCDKTHTCPPCPAPELLGGPSVFLFPPKPKDTLYITREPEVTCVVVDVSHEDPEVKFNWYVDGVEVHNAKTKPREEQYNNASRVVSVLTVLHQDWLNGKEYKCKVSNKALPAPIEKTISKAKGQPREPQVYTLPPCRDELTKNQVSLWCLVKGFYPSDIAVEWESNGQPENNYKTTPPVLDSDGSFFLYSKLTVDKSRWQQGNVFSCSVMHEALHNHYTQKSLSLSPG
heavy 2: QVQLVQSGAEVVKPGSSVKVSCEASGFTFTDSVITWVRQRPGQGLEWIGEIYPGSGNFYYNEKFQGRVTITADKSTSTAYMELSSLRSEDTAVYFCAMRRSSWGQGTLVTVSSASTKGPSVFPLAPSSKSTSGGTAALGCLVKDYFPEPVTVSWNSGALTSGVHTFPAVLQSSGLYSLSSVVTVPSSSLGTQTYICNVNHKPSNTKVDKKVEPKSCDKTHTCPPCPAPELLGGPSVFLFPPKPKDTLYITREPEVTCVVVDVSHEDPEVKFNWYVDGVEVHNAKTKPREEQYNNASRVVSVLTVLHQDWLNGKEYKCKVSNKALPAPIEKTISKAKGQPREPQVCTLPPSRDELTKNQVSLSCAVKGFYPSDIAVEWESNGQPENNYKTTPPVLDSDGSFFLVSKLTVDKSRWQQGNVFSCSVMHEALHNRFTQKSLSLSPG
light 2: DVVMTQTPLSLSVTPGQPASISCKSSQTIVHSNSKTYLEWYLQKPGQSPQLLIYKVSSRFSGVPDRFSGSGSGTDFTLKISRVEAEDVGVYYCFQGSHVPLTFGQGTKLEIKRTVAAPSVFIFPPSDEQLKSGTASVVCLLNNFYPREAKVQWKVDNALQSGNSQESVTEQDSKDSTYSLSSTLTLSKADYEKHKVYACEVTHQGLSSPVTKSFNRGEC
notes: Trivalent: CODV arm VH1/VL1 C3_Hu11, VH2/VL2 C21_Hu21
Regarding B2, in experiment [1], binding was put at a Kd of 1.9 nM, the koff came to 0.00404 s⁻¹ and the kon was 2.13e+06 M⁻¹ s⁻¹.

B3: anti-beta-DG antibody derived from phage display clone B04 (antibody, V domains shown)
VH: QVQLQQSGGGLVQPGGSLRLSCAASGFTFSSYAMSWVRQAPGKGLEWVSAISGSGGSTYYADSVKGRFTVSRDNSKNTLYLQMNSLRAEDTAVYYCARLGYCSSTSCYLSAFDIWGQGTMVTVSS
VL: EIVLTQSPSTLSASVGDRVTITCRASQSISSWLAWYQQKPGKAPKLLIYDASSLESGVPSRFSGSGSGTEFTLTISSLQPDDFATYYCQQYNSYPLTFGGGTKVEIK
notes: Phage display clone
In experiment [2], B3 had a Kd of 25.7 nM, an off-rate constant (koff) of 0.0016 s⁻¹ and a kon of 62000 M⁻¹ s⁻¹. In experiment [3], this molecule had a koff of 0.0016 s⁻¹ and a kon of 62000 M⁻¹ s⁻¹.

B4: anti-laminin-2 (anti-LG-5) monoclonal antibody clone AN01 (antibody, V domains shown)
VH: EVQLQQSGPELVKPGASVKMSCKASGYTFTSYNIHWVKQKPGQGLEWIGYINPYNDGTKYSEKFKGKATLTSDRSSSTAYMEVSSLTSEDSAVYYCAIYGNSYWGQGSTLTVSS
VL: DIVMTQAAPSIPVTPGESVSISCRSSKSLLHSNGNTYLYWFLQRPGQSPQRLIYYMSNLDSGVPDRFSGRGSGTDFTLRISRVEAEDVGVYYCMQGLEYPYTFGGGTKLEIK
notes: tested as immobilized mAb
Turning to B4, in experiment [4], binding was characterised by a dissociation constant (Kd) of 9.24 nM, the koff is 0.000915 s⁻¹ and the kon worked out at 99000 M⁻¹ s⁻¹.

B5: humanized anti-laminin-2 antibody C3_Hu10 (antibody, V domains shown)
VH: EVQLVESGGGLVKPGGSLRLSCAASGFTFSSYTMSWVRQAPGKGLEWVASISSSGSNTYYPDSVKGRFTISRDNAKNNLYLQMNSLRAEDTALYYCARFDYGSSLDSWGQGTLLTVSS
VL: EIVLTQSPDFLSVTPKEKVTLTCRASQSISNNLHWYQQKSDQSPKLLIKYASQSISGIPSRFSGSGSGTDFTLTINSVEAEDAATYFCQQSKSWPRTFGGGTKLEIK
notes: Called monovalent anti-LG4/5 antibody
Regarding B5, the binding result in experiment [5] is on record as “no binding (tested: 200 nM)”.

B6: humanized anti-laminin-2 antibody C21_Hu11 (antibody, V domains shown)
VH: EVQLVESGGGLVKPGGSLRLSCAASGFTFSSYTMSWVRQAPGKGLEWVASISSSGSNTYYPDSVKGRFTISRDNAKNNLYLQMNSLRAEDTALYYCARFDYGSSLDSWGQGTLLTVSS
VL: EIVLTQSPDFLSVTPKEKVTLSCRASQSISNYLHWYQQKSDQSPKLLIKYASQSISGIPSRFSGSGSGTDFTLSINSVEAEDAATYFCQQSKSWPRTFGGGTKLEIK
notes: as for B5
For the molecule B6, the binding result in experiment [5] is on record as “no binding (tested: 200 nM)”.

B7: humanized anti-laminin-2 antibody C3_Hu11 (antibody, V domains shown)
VH: EVQLVESGGGLVKPGGSLRLSCAASGFTFSSYTMSWVRQAPGKGLEWVASISSSGSNTYYPDSVKGRFTISRDNAKNNLYLQMNSLRAEDTALYYCARFDYGSSLDSWGQGTLLTVSS
VL: EIVLTQSPDFLSVTPKEKVTLTCRASQSIGNNLHWYQQKSDQSPKLLIKYASQSISGIPSRFSGSGSGTDFTLTINSVEAEDAATYFCQQSKSWPRTFGGGTKLEIK
notes: as for B5
Consider B7, for which the binding result in experiment [5] is “no binding (tested: 200 nM)”. For the same molecule, in experiment [6], the Kd was 9.83 nM, the koff was 0.00117 s⁻¹ and the kon turned out to be 119000 M⁻¹ s⁻¹.

B8: humanized anti-laminin-2 antibody C21_Hu21 (antibody, V domains shown)
VH: EVQLVESGGGLVQPGGSLRLSCAASGFTFSSYTMSWVRQAPGKGLEWVATISSSGDNTYYPDSVKGRFTISRDNSKNTLYLQMSSLRAEDTALYYCARFDYGSSLDSWGQGTTLTVSS
VL: EIVLTQSPDFLSVTPGEKVTLTCRASQSISNYLHWYQQKSDQSPKLLIKYASQSISGVPSRFSGSGSGTDFTLTISSVEAEDFATYFCQQSKSWPRTFGGGTKLEIK
notes: as for B5
For B8, the binding result in experiment [5] is given as “no binding (tested: 200 nM)”. Besides, in experiment [6], binding was put at a Kd of 8.99 nM, the off-rate (koff) was determined as 0.00144 s⁻¹ and the kon was 160000 M⁻¹ s⁻¹.
